Results from patent US20120058906A1 (published 2012).
Each block holds one binder with its values, some of them ahead of it.

What was measured:
[1] = target: T1, rHuman Erythropoietin R/Fc Chimera, CF (R&D Systems Cat#963-ER) (human, UniProt P19235 25-250); experiment: ECL (MSD Multi-Spot) binding assay, antigen spotted on plate; Fab 15 nM; blank spot 261
T1 construct: Bought Fc chimera; also called EPO R/Fc; Epo R; Fc part of the bought chimera not given
T1 sequence: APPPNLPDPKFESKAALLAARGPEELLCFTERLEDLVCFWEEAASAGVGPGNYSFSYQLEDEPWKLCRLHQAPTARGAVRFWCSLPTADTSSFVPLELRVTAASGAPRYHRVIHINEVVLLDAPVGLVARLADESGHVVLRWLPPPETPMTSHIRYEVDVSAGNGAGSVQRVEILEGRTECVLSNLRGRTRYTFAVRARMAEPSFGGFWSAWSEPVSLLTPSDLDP

[2] = target: T2, Recombinant Human DLL4 (R&D Systems Cat#1506-D4/CF) (human, UniProt Q9NR61 27-524); experiment: as above
T2 construct: Bought recombinant protein; also called delta-like protein 4; rHuman DLL4

[3] = target: T3, rHuman Notch-1/Fc Chimera, CF (R&D Systems Cat#3647-TK) (human, UniProt P46531 19-526); experiment: as above
T3 construct: Bought Fc chimera; Fc part of the bought chimera not given

[4] = target: T4, rHuman CD44/Fc Chimera, CF (R&D Systems Cat#3660-CD) (human, UniProt P16070 21-220); experiment: as above
T4 construct: Bought Fc chimera; Fc part of the bought chimera not given

[5] = target: T5, rHuman P-Cadherin/Fc Chimera, CF (R&D Systems Cat#861-PC) (human, UniProt P22223 108-654); experiment: as above
T5 construct: Bought Fc chimera; also called CDH3; Fc part of the bought chimera not given

[6] = target: T1, rHuman Erythropoietin R/Fc Chimera, CF …; experiment: ECL (MSD Multi-Spot) binding assay, antigen spotted on plate; Fab 17 nM; blank spot 143
[7] = target: T2, Recombinant Human DLL4 (R&D Systems …); experiment: as above
[8] = target: T6, rHuman ErbB2/Fc Chimera, CF (R&D Systems Cat#1129-ER) (human, UniProt P04626 23-652); experiment: as above
T6 construct: Bought Fc chimera; also called HER2/neu; human epidermal growth factor 2 receptor; Fc part of the bought chimera not given

[9] = target: T7, rHuman EGF R/Fc Chimera, CF (R&D Systems Cat#344-ER) (human, UniProt P00533 25-645); experiment: as above
T7 construct: Bought Fc chimera; also called epidermal growth factor receptor; Fc part of the bought chimera not given

[10] = target: T3, rHuman Notch-1/Fc Chimera, CF (R&D …); experiment: as above
[11] = target: T4, rHuman CD44/Fc Chimera, CF (R&D Systems …); experiment: as above
[12] = target: T8, rHuman IGF-1 sR (IGF-1 sR), CF (R&D Systems Cat#391-GR) (human, UniProt P08069 31-932); experiment: as above
T8 construct: Bought soluble receptor; also called insulin-like growth factor-1 soluble receptor; IGF-R1

[13] = target: T9, rHuman CD44/Fc Chimera, CF (R&D Systems Cat#3660-CD) (human, UniProt P16070 21-220); experiment: MSD ECL titration, Fab 0.6 nM, blank 226
T9 construct: Bought Fc chimera; Fc part of the bought chimera not given

[14] = target: T10, rHuman IGF-1 sR (insulin-like growth factor-1 soluble receptor), CF (R&D Systems Cat#391-GR) (human, UniProt P08069 31-932); experiment: MSD ECL titration, Fab 0.6 nM, blank 226
T10 construct: Bought soluble receptor; also called IGF-R1

[15] = target: T11, rHuman P-Cadherin/Fc Chimera, CF (R&D Systems Cat#861-PC) (human, UniProt P22223 108-654); experiment: MSD ECL titration, Fab 0.6 nM, blank 226
T11 construct: Bought Fc chimera; Fc part of the bought chimera not given

[16] = target: T12, Recombinant Human DLL4 (R&D Systems Cat#1506-D4/CF) (human, UniProt Q9NR61 27-524); experiment: MSD ECL titration, Fab 0.6 nM, blank 226
T12 construct: Bought recombinant protein; also called rHuman DLL4; delta-like protein 4

[17] = target: T13, rHuman HGF R/c-MET/Fc Chimera, CF (R&D Systems Cat#358-MT/CF) (human, UniProt P08581 25-932); experiment: MSD ECL titration, Fab 0.6 nM, blank 226
T13 construct: Bought Fc chimera; also called HGF R/Fc; Fc part of the bought chimera not given

[18] = target: T10, rHuman IGF-1 sR (insulin-like growth …); experiment: MSD ECL titration, Fab 2.3 nM, blank 234
[19] = target: T11, rHuman P-Cadherin/Fc Chimera, CF (R&D …); experiment: MSD ECL titration, Fab 2.3 nM, blank 234
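Further: blank spot per well as comparator with Hit at signal to blank ratio of 4 or more.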

- ECL signal [1]: 397
- ECL signal [2]: 690
- ECL signal [3]: 508
- ECL signal [4]: 454
- ECL signal [5]: 351
B1: Fab VH6-1_IGHD3-3*01_IGHJ4*01 & V4-3_IGLJ4*01 (Fab, V domains shown)
VH: QVQLQQSGPGLVKPSQTLSLTCAISGDSVSSNSAAWNWIRQSPSRGLEWLGRTYYRSKWYNDYAVSVKSRITINPDTSKNQFSLQLNSVTPEDTAVYYCAREYYDFWSGYYTDYFDYWGQGTLVTVSS
VL: QPVLTQPTSLSASPGASARLTCTLRSGINLGSYRIFWYQQKPESPPRYLLSYYSDSSKHQGSGVPSRFSGSKDASSNAGILVISGLQSEDEADYYCMIWHSSASFVFGGGTQLIIL
notes: Tested as a Fab made in E. coli; also called IGHV6-1*01

- ECL signal [6]: 620
- ECL signal [7]: 7160
- ECL signal [8]: 1030
- ECL signal [9]: 805
- ECL signal [10]: 558
- ECL signal [11]: 518
- ECL signal [12]: 872
B2: Fab VH5-51_IGHD5-18*01>3_IGHJ4*01 & V3-4_IGLJ1*01 (Fab, V domains shown)
VH: EVQLVQSGAEVKKPGESLKISCKGSGYSFTSYWIGWVRQMPGKGLEWMGIIYPGDSDTRYSPSFQGQVTISADKSISTAYLQWSSLKASDTAMYYCARRGYSYGYDYFDYWGQGTLVTVSS
VL: QTVVTQEPSFSVSPGGTVTLTCGLSSGSVSTSYYPSWYQQTPGQAPRTLIYSTNTRSSGVPDRFSGSILGNKAALTITGAQADDESDYYCVLYMGSGISYVFGTGTKVTVL
notes: Tested as a Fab made in E. coli; also called IGHV5-51*03

- ECL signal [13]: 238
- ECL signal [14]: 313
- ECL signal [15]: 321
- ECL signal [16]: 508
- ECL signal [17]: 256
- ECL signal [18]: 231
- ECL signal [19]: 401
B3: Fab VH1-46_IGHD6-6*01_IGHJ1*01 & L6_IGKJ1*01 (Fab, V domains shown)
VH: QVQLVQSGAEVKKPGASVKVSCKASGYTFTSYYMHWVRQAPGQGLEWMGIINPSGGSTSYAQKFQGRVTMTRDTSTSTVYMELSSLRSEDTAVYYCAREEYSSSSAEYFQHWGQGTLVTVSS
VL: not shown
notes: Expressed in E. coli as Fab: heavy chain with CH1 plus Flag and His tags from Plasmid A, kappa light chain constant region from Plasmid C; also called Fab No. 1
